Source: article PMC8567388

Legend:
[1] = target: Peptide ligand: GluN2B (TAMRA-NNG-…); assay: fluorescence polarisation
[2] = target: Peptide ligand: Stargazin (TAMRA-NNG-…); assay: fluorescence polarisation

| Kd [1] | Kd [2] | Substance |
| --- | --- | --- |
| 1.9 µM |  | PSD-95 PDZ1-2 6xHis (domain or fragment) |
| 12.4 µM | 27.3 µM | PSD-95 PDZ1 6xHis (domain or fragment) |
